Holding throughout (assay type): cell-based, E. coli
Data set [1] concerns bacterial cell growth. The data set is described as follows: Bacterial cell growth / cell density in growth medium.
Method: The starter culture (2 mL) was transferred to a limiting medium (100 mL) (50 mM Na2HPO4, 50 mM KH2PO4, 50 mM (NH4)2504, 2 mM MgSO4, 0.1% trace metals, 0.5% glycerol, 0.05% glucose, and 5% amino acids, and pH 7.25) supplemented with ampicillin (100 μg/mL), chloramphenicol (35 μg/mL), 100 μM pyruvate, 10 mM catechol, and 300 μM DTT at 30° C. Protein expression was induced by adding 0.2% L-arabinose when the optical density reached 0.8, and the culture was cultured overnight at 30° C.
A simple solution was to maximize the concentrations of catechol, pyruvate, and ammonia in a growth medium. […] In the growth medium, 50 mM pyruvate and 25 mM ammonia were added as starting materials together with various concentrations (0 mM to 10 mM) catechol.
The test system of data set [2] is emGFP containing an amber mutation (TAG) at position 39 or 90. The data set is described as follows: emGFP fluorescence from cytolysate, efficiency of genetic incorporation of L-DOPA. The following applies: all L-DOPA concentrations (1 mM to 3 mM), positions 39 and 90 of emGFP. An excerpt: (§1) A wild-type emGFP gene was obtained from commercially available sources by gene synthesis, amplified by PCR, and inserted between the BspHI and KpnI sites of pBAD/Myc-His (Invitrogen) to generate pBAD-emGFP (SEQ ID NO: 10). An amber codon (TAG) was incorporated at position 39 or 90 in the emGFP by site-specific mutants. A plasmid containing each amber codon was incorporated into E. coli DH10 used as a prokaryote host cell with pEvol-DOPA-RS1 (SEQ ID NO: 6), pEvol-DOPA-RS2 (SEQ ID NO: 7), or pEvol-DOPA-RS (SEQ ID NO: 8) to co-transform the E. coli DH10 (Comparative Example 1: […], Example 1: DOPA-RS1, Example 2: DOPA-RS2). Cells were amplified in an LB medium (lysogeny broth) supplemented with ampicillin (100 μg/mL) and chloramphenicol (35 μg/mL). […] Protein concentrations were calculated by measuring absorbance at 280 nm and using the calculated extinction coefficient (2.2×10^4 cm^−1M^−1 for emGFP).
Cells (2×10^9) were harvested by centrifugation at 10,000 rpm and 4° C. for 5 minutes, and cell pellets were lysed for 1 hour with Bugbuster (Novagen) (50 μL) supplemented with benzonase (Sigma) ([…]). The cytolysate was removed by centrifugation at 13,000 rpm and 4° C. for 10 minutes, and the supernatant was directly used for fluorescence measurement. Fluorescence was measured at 510 nm with excitation at 487 nm. […]

Data set [3] relates to emGFP-E90DOPA. The data set is described as follows: MALDI-TOF MS analysis of tryptic digest of emGFP-E90DOPA, specificity of incorporation. The following applies: 3 mM L-DOPA, position 90.
Source text: as §1, with “Protein expression was induced by adding 0.2% L-arabinose when the optical density reached 0.8, and the culture was cultured overnight at 37° C. […] Protein” for “Protein”, “emGFP). […]” for “emGFP).”
In order to express an emGFP-E90DOPA mutant, the expressed protein was purified, followed by tryptic degradation and then evaluated by MALDI-TOF (matrix-assisted laser desorption/ionization-time of flight) MS analysis (FIG. 2). […]

Where a chain is given by its changes, count along the chain named.

Consider `Oc1ccccc1O` [catechol], for which the toxicity entry in data set [1] (10 mM catechol) was “a reasonable toxicity was observed”. In addition, the “concentration that inhibited bacterial cell growth” value in data set [1] (preliminary test, growth medium) is “more than 8 mM”.

B1: DOPA-RS2 (protein)
chain: MDEFEMIKRNTSEIISEEELREVLEKDEKSALIGFEPSGKIHLGHYLQIKKMIDLQNAGFDIIILLSDLNAYLNQKGELDEIRKIGDYNKKVFEAMGLKAKYVYGSEFQLDKDYTLNVYRLALKTTLKRARRSMELIAREDENPKVAEVIYPIMQVNDIHYLGVDVLVGGMEQRKIHMLARELLPKKVVCIHNPVLTGLDGEGKMSSSKGNFIAVDDSPEEIRAKIKKAYCPAGVVEGNPIMEIAKYFLEYPLTIKRPEKFGGDLTVNSYEELESLFKNKELHPMDLKNAVAEELIKILEPIRKRL
modifications: Artificial DOPA_RS-2 Sequence
In the case of B1, the “efficiency in incorporation of L-DOPA (emGFP expression), rank order” value in data set [2] is given as “DOPA-RS2>DOPA-RS1>DOPA-RS”. In data set [3], the incorporation of tyrosine entry is “not detected”.

B2: DOPA-RS1 (protein)
chain: B1 chain with L167N
modifications: Artificial DOPA_RS-1 Sequence
Consider B2, for which the “efficiency in incorporation of L-DOPA (emGFP expression), rank order” value in data set [2] is listed as “DOPA-RS2>DOPA-RS1>DOPA-RS”. For the same molecule, the incorporation of tyrosine result in data set [3] was “not detected”.

These data come from US11220682B2 (SOGANG UNIVERSITY RESEARCH & BUSINESS DEVELOPMENT FOUNDATION, priority 2017, dated 2022).
